Test results from patent publication US20180037651A1.

Target: GPRC5D (MM.1R cells) (UniProt Q9NZD1)
Experiment: FACS cell binding; MM.1R cells

Fab6300
EC50: 122 nM
